Data from patent publication US20250296984A1 (THELPER, published 2025).
Positions count from the first letter of the chain named. Where two headings read alike, the source gives them in different places.

T1: US28 of HCMV strain TB40/E fused to a C-terminal 6His tag (human cytomegalovirus (HCMV) strain …, UniProt P69332 1-354)
T1 construct: also called TB40/E form of US28
T1 chain: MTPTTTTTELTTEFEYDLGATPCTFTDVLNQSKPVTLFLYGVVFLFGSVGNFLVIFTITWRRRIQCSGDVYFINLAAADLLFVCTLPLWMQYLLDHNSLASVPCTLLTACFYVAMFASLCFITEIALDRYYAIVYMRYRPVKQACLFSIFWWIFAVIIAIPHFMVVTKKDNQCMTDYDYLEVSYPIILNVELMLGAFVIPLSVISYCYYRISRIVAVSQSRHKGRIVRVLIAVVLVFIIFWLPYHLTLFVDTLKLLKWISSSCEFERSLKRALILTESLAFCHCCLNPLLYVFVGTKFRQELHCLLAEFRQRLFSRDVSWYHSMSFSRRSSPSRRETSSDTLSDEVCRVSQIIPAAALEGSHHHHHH

T2: US28 of HCMV strain DB fused to a C-terminal 6His tag (human cytomegalovirus (HCMV) strain DB, UniProt P69332 1-354)
T2 chain: T1 chain with T8A, E15D, L18E, G19A, T24V, V49I, D170N

T3: US28 of HCMV strain Merlin fused to a C-terminal 6His tag (human cytomegalovirus (HCMV) strain …, UniProt F5HF62 1-354)
T3 construct: also called Merlin-encoded US28
T3 sequence: T1 chain with T8A, E15D, L18E, G19D, T24V, V49I, S330G

T4: mutated US28 (artificial form with all known US28 mutations) fused to a C-terminal 6His tag (artificial variant of human …, UniProt P69332 1-354)
T4 construct: also called mutated strain; CHO-mutated strain
T4 chain: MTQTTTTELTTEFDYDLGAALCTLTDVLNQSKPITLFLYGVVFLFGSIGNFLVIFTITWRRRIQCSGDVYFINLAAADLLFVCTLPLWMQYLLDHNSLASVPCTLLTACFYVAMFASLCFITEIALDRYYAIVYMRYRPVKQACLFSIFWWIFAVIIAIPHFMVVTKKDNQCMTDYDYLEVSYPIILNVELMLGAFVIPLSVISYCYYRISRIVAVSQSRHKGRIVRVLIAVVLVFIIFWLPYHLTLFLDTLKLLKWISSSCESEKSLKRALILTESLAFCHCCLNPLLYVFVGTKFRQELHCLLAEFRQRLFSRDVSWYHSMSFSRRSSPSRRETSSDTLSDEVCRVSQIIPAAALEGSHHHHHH

T5: US28 of HCMV strain VHL/E fused to a C-terminal 6His tag (human cytomegalovirus (HCMV) strain …, UniProt P69332 1-354)
T5 construct: also called VHL/E-encoded US28
T5 chain: T1 chain with T8A, E15D, L18D, G19E, T24V, F25L, V49I, R267K, V346A

T6: US28 of HCMV strain Ad169 (human cytomegalovirus (HCMV) strain …, UniProt P69332 1-354)
T6 sequence: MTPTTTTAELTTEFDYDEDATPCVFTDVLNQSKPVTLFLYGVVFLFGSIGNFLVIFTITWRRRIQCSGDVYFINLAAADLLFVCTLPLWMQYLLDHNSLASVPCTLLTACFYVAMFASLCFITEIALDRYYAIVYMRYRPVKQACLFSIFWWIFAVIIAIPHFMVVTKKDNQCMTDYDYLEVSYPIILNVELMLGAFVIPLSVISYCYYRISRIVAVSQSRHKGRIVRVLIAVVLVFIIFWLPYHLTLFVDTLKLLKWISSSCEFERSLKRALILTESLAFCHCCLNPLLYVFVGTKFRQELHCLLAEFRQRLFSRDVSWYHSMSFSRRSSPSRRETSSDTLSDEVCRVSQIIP

B1: bivalent VUN100 (VHH)
chain: EVQLVESGGGLVQPGGSLRLACAVSGPGLIFKFTGVAWYRRQVPGAKRGLVALITGDGATRYGDSVKGRFTVSRDIAAKRVYLEMNDLRSEDTAVYYCKTGEYWGQGTQVTVSSGGGGSGGGGSGGGGSGGGGSGGGGSGGGGSEVQLVESGGGLVQPGGSLRLACAVSGPGLIFKFTGVAWYRRQVPGAKRGLVALITGDGATRYGDSVKGRFTVSRDIAAKRVYLEMNDLRSEDTAVYYCKTGEYWGQGTQVTVSSEQKLISEEDLHHHHHH
notes: also called VUN100b; BvVUN100
B2: monovalent VUN100 (VHH)
VHH: EVQLVESGGGLVQPGGSLRLACAVSGPGLIFKFTGVAWYRRQVPGAKRGLVALITGDGATRYGDSVKGRFTVSRDIAAKRVYLEMNDLRSEDTAVYYCKTGEYWGQGTQVTVSS
notes: also called Mv VUN100; VUN100 Ab
B3: US28-13-5G6-1D3 (antibody, V domains shown)
VH: EVKLVESGGGLVQPGGSLRLACATSGFTFTDYYMSWVRQPPGKALEWLGFIRSKANGYTTEYSASVKGRFTISRDNSQSILYLQMNTLRSEDSATYYCARDERRTAWLAYWGQGTLVTVSA
VL: DVLMTQTPLSLPVSLGDQASISCRSSQSIVHSNGNTYLDWYLQKPGQSPKLLIYKVSNRFSGVPDRFSGSGSGTDFTLKISRVEAEDLGVYYCFQGSHVPTWTFGGGTKLEIKR
notes: also called US28-13-5G6-1D3 rAb; 13-5G6-1D3 clone

Columns and labels:
[1] = molecular target: T1, US28 of HCMV strain TB40/E fused to a …; assay: flow cytometry, CHO cells (FIG. 21C)
[2] = molecular target: T1, US28 of HCMV strain TB40/E fused to a …; assay: flow cytometry, CHO cells (FIG. 21D)
[3] = molecular target: T2, US28 of HCMV strain DB fused to a …; assay: flow cytometry, processed data of FIG. 33
[4] = molecular target: T1, US28 of HCMV strain TB40/E fused to a …; assay: flow cytometry, processed data of FIG. 33
[5] = molecular target: T3, US28 of HCMV strain Merlin fused to a …; assay: flow cytometry, processed data of FIG. 33
[6] = molecular target: T4, mutated US28 (artificial form with all …); assay: flow cytometry, CHO cells expressing the mutated US28
[7] = molecular target: T2, US28 of HCMV strain DB fused to a …; assay: flow cytometry, CHO cells expressing US28 of strain DB
[8] = molecular target: T5, US28 of HCMV strain VHL/E fused to a …; assay: flow cytometry, processed data of FIG. 33; reference
[9] = molecular target: T1, US28 of HCMV strain TB40/E fused to a …; assay: flow cytometry, CHO cells expressing US28 of strain TB40/E
[10] = molecular target: T2, US28 of HCMV strain DB fused to a …; assay: flow cytometry, transfected HEK Phoenix cells, 6.76 nM
[11] = molecular target: T1, US28 of HCMV strain TB40/E fused to a …; assay: as above
[12] = molecular target: T5, US28 of HCMV strain VHL/E fused to a …; assay: as above
[13] = molecular target: T3, US28 of HCMV strain Merlin fused to a …; assay: as above
[14] = molecular target: T4, mutated US28 (artificial form with all …); assay: flow cytometry, CHO-mutated strain against control CHO cells (FIG. 21B)
[15] = molecular target: T2, US28 of HCMV strain DB fused to a …; assay: flow cytometry, CHO-US28 against control CHO cells
[16] = molecular target: T2, US28 of HCMV strain DB fused to a …; assay: flow cytometry, CHO-US28 against control CHO cells
[17] = molecular target: T6, US28 of HCMV strain Ad169; assay: flow cytometry, HCMV Ad169 infected against Mock MRC-5 cells

Binder	% change in absolute binding between the DB and TB40/E forms [1] [%]	% retention of binding activity between the DB and TB40/E forms [2] [%]	variation in binding relative to US28 as encoded by VHL/E [3]	variation in binding relative to US28 as encoded by VHL/E [4]	variation in binding relative to US28 as encoded by VHL/E [5]	% of cells bound [6] [%]	% of cells bound [7] [%]	variation in binding relative to US28 as encoded by VHL/E [8]	% of cells bound [9] [%]	binding value (Preliminary Binding Data) [10]	binding value (Preliminary Binding Data) [11]	binding value (Preliminary Binding Data) [12]	binding value (Preliminary Binding Data) [13]	specificity (US28 cells over control cells) [14] [fold]	binding result [6]	binding specificity comparative to the specificity displayed by VUN100 [15] [fold]	binding specificity comparative to the specificity displayed by VUN100 [16] [fold]	fold binding, infected over uninfected cells [17] [fold]
B1	> 40	≤ 60	-2.92	-14.8	-2.41	2.58	9.24	0	5.2	0.62	0.16	2.29	0.71	2.43				
B2	> 35	≤ 60				1.41	6.91		4.33					< 1	no binding			
B3	< 10	~100				12.9	16.6		18.2					~15		1.65	1.65	~16
